Target: baculovirus-expressed human Dnmt1 (human, UniProt P26358 1-1616)
Test: pull-down

Chain of baculovirus-expressed human Dnmt1 (P26358 whole entry): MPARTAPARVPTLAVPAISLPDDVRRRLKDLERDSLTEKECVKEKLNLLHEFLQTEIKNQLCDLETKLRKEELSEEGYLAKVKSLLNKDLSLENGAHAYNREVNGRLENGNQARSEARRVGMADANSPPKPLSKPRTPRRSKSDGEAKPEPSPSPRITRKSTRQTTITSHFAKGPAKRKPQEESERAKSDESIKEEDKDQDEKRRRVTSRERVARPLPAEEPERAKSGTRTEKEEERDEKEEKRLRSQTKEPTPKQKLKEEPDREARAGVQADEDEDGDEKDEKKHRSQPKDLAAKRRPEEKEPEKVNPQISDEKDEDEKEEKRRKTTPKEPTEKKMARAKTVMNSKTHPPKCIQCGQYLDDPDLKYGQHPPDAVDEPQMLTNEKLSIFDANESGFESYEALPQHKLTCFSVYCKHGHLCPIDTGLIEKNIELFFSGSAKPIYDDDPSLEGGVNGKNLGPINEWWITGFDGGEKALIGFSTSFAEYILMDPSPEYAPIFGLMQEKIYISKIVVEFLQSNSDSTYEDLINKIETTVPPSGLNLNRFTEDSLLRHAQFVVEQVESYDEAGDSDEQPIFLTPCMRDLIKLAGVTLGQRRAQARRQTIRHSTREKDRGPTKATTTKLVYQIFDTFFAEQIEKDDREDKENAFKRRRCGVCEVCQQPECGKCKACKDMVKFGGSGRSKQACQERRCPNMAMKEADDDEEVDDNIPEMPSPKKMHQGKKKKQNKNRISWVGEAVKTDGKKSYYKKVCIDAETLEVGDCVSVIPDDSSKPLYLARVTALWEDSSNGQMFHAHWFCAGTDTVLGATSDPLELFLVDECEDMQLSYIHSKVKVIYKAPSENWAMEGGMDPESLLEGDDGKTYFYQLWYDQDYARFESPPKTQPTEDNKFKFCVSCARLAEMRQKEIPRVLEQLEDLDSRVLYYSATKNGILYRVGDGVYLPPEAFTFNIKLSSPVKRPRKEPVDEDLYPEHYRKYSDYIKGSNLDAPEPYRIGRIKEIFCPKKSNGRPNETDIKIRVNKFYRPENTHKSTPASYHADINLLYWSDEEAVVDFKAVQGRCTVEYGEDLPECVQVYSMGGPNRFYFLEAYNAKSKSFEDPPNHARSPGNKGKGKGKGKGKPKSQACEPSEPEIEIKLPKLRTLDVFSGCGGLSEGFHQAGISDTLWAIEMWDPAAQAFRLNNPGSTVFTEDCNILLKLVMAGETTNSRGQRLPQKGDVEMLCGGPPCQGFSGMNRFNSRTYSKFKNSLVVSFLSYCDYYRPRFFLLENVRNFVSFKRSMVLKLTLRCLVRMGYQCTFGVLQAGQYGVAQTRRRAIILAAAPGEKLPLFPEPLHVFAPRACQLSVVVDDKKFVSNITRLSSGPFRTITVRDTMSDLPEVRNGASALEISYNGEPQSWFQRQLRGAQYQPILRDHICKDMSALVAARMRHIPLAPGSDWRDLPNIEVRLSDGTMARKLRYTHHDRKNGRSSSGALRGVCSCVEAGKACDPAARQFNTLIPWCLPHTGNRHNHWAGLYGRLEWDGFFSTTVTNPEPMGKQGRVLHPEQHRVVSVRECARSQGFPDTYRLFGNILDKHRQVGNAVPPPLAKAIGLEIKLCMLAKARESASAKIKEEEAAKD

B1: GST-E7 (HPV-16 E7) (natural protein, UniProt P03129 1-98, looked up)
chain: MHGDTPTLHEYMLDLQPETTDLYCYEQLNDSSEEEDEIDGPAGQAEPDRAHYNIVTFCCKCDSTLRLCVQSTHVDIRTLEDLLMGTLGIVCPICSQKP
- binding result: binds
